Source: patent US11643448B2 (JAPAN SCIENCE AND TECHNOLOGY AGENCY, priority 2013, dated 2023)
Like-named read-outs stand apart in the source and are kept apart here.

Assays:
PC12 cells [1] = assay: Cell viability after photo-oxygenation reaction in the presence of cells (WST-8); format: cell-based, rat; settings: light irradiation, regardless of presence or absence of Aβ (f and h)
Protocol: In a plate well in which the PC12 cells had been seeded, a phosphate buffer (pH 7.4, 50 μL) containing 20 μM of Aβ and a catalyst (Catalyst 1 in 4 μM or Catalyst 2 in 20 μM) was irradiated with 500 nm LED (light emitting diode) at 37° C. for 15 minutes. After the reaction, 50 μL of a HEPES buffer solution containing a 0.1% horse serum-containing medium was added to thereto (final Aβ concentration: 10 μM).
In order to achieve Aβ selective oxidation, a peptide having a high affinity for Aβ, D-[Lys-Leu-Val-Phe(4-phenyl)-Phe] (SEQ ID NO: 3) was identified, and was bonded to flavin as an affinity tag of Aβ (Catalyst 2 in FIG. 17). Catalyst 2 or riboflavin itself (Catalyst 1 in FIG. 17) was added to a phosphate buffer containing Aβ, and the mixture was irradiated with light in the presence of cells. 500 nm LED was used as a light source, and light was irradiated at 37° C. for 15 minutes. […] After the oxidation reaction, the cells were further incubated for 2 days, and the cell viability was determined thereafter (bar graph in FIG. 17). […] It is conceivable that the cells were damaged due to non-specific oxidation. On the other hand, when Catalyst 2 was used in the absence of Aβ under the condition j, 50% or more of the cells survived after the light irradiation. […]

Aβ = Aβ (Homo sapiens, UniProt P05067); assay: Oxidation of Aβ by catalyst under light irradiation; format: biochemical; settings: Catalyst 1 4 μM or Catalyst 2 20 μM, Aβ 20 μM, 500 nm LED, 37° C., 15 minutes
Aβ, sequence (P05067 672-713 limits assumed): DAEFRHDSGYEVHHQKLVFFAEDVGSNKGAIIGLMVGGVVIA

Aβ1-42 [2] = target: T1, Aβ1-42 (Homo sapiens, UniProt P05067); assay: Thioflavin T fluorescence assay of aggregation; format: biochemical; settings: Aβ1-42 20 μM, 37° C., incubation time of 3 hours and 6 hours
T1 sequence (P05067 672-713): as the sequence (P05067 672-713 limits assumed) above
Protocol: A part of the reaction mixture (10 μL) was added to a 50 mM glycine-NaOH buffer (pH 8.5, 400 μL) containing thioflavin T (5 μM), and the resultant mixture was immediately mixed to measure a fluorescence intensity of thioflavin T. In the fluorescence intensity measurement, an excitation wavelength was 440 nm, and a fluorescence wavelength was 470 nm.
A phosphate buffer having the same composition was reacted with no irradiation to provide a sample “native Aβ” as a control. Aggregation of each sample was evaluated by thioflavin T assay (it is known that fluorescence intensity of thioflavin T corresponds to the amount of an aggregate being rich in β sheet structure) (FIG. 11).

native Aβ = native Aβ (Homo sapiens, UniProt P05067); assay: Inhibition of aggregation of native Aβ by oxidized Aβ (atomic force microscope analysis); format: biochemical; settings: native Aβ 20 μM with oxidized Aβ 20 μM, 37° C., 6 hours, compared with native Aβ alone
native Aβ, sequence (P05067 672-713): as the sequence (P05067 672-713 limits assumed) above
Protocol: A part of the reaction mixture (10 μL) was added on mica, incubated at room temperature for 3 minutes, washed with 20 μL of water, and air dried. The measurement was carried out using Nano Wizard II (JPK instruments AG, Berlin, Germany) in a tapping mode in air at room temperature.

Aβ1-42 [3] = target: T1, Aβ1-42; assay: Atomic force microscope analysis of fibril formation; format: biochemical; settings: Aβ1-42 20 μM, 37° C.
Protocol: A phosphate buffer (10 mM, pH 7.4) in which Aβ1-42 (20 μM) and riboflavin (4 μM) had been dissolved was incubated at 37° C. under irradiation with a fluorescent lamp (24 W, natural white, a distance between a light source and a reaction mixture was about 3 cm). A part of the reaction mixture (10 μL) was added on mica, incubated at room temperature for 3 minutes, washed with 20 μL of water, and air dried. The measurement was carried out using Nano Wizard II (JPK instruments AG, Berlin, Germany) in a tapping mode in air at room temperature.

PC12 cells [4] = settings: 10 µM
Protocol: PC12 cells, i.e., rat adrenal medulla-derived pheochromocytoma (purchased from RIKEN, Japan), were used. A phosphate buffer (pH 7.4) in which Aβ1-42 (20 μM) and riboflavin (4 μM) had been dissolved was incubated at room temperature under irradiation with a fluorescent lamp (24 W, natural white, a distance between a light source and a reaction mixture was about 3 cm). A part of the reaction mixture (50 μL) was added to a cell culture medium (50 μL) (final Aβ concentration was 10 μM), and the mixture was incubated at 37° C. for 48 hours under 5% CO2 atmosphere. Cells were observed and photographed using an inverted microscope DMI6000 B (Leica Microsystems GmbH, Wetzlar, Germany) equipped with a digital camera DFC360 FX (Leica Microsystems GmbH). A cell count reagent containing WST-8 (2-(2-methoxy-4-nitrophenyl)-3-(4-nitrophenyl)-5-(2,4-disulfonyl)-2H-tetrazolium, monosodium salt) (10 μL) was added to the mixture. The mixture was incubated at 37° C. for 6 hours under 5% CO2 atmosphere. Thereafter, absorbance at 450 nm (reference wavelength: 655 nm) was measured by iMark™ plate reader (Bio-Rad Laboratories, Inc., Hercules, Calif.).

Aβ1-42 [5] = target: T1, Aβ1-42; assay: Circular dichroism spectroscopy analysis; format: biochemical; settings: Aβ1-42 20 μM, 37° C.
Protocol: A phosphate buffer (10 mM, pH7.4) in which Aβ1-42 (20 μM) and riboflavin (4 μM) had been dissolved was incubated at 37° C. under irradiation with a fluorescent lamp (24 W, natural white, a distance between a light source and a reaction mixture was about 3 cm). A part of the reaction mixture was analyzed using Model 202SF (AVIV Biomedical, Inc., Lakewood, N.J.).

Molecule	cell viability (PC12 cells [1])	extent of Aβ oxidation (Aβ)	fluorescence intensity of thioflavin T (Aβ1-42 [2])	amyloid fibril content (native Aβ)	fibril formation (Aβ1-42 [3])	cell viability (PC12 cells [4]) [%]	secondary structure by circular dichroism (Aβ1-42 [5])
Cc1cc2nc3c(=O)[nH]c(=O)nc-3n(C[C@H](O)[C@H](O)[C@H](O)CO)c2cc1C [Catalyst 1, riboflavin]	almost all cells died	about 60%	–	–	–	–	–
oxidized Aβ: Aβ1-42 oxidized with riboflavin under light; Tyr10, His13, His14 and Met35 oxidized, one to eight oxygen atoms added	–	–	significantly lower than that of the native Aβ	significantly decreased	hardly	≥ 50	random coil structure was maintained
